Legend:
Experiment in all cases: SPR
[1] = target: MBP-P66M-D205A,D207A fusion protein (Borrelia burgdorferi) (UniProt H7C7N8)
[2] = target: MBP-P66M-Del202-208 fusion protein (Borrelia burgdorferi) (UniProt H7C7N8)
[3] = target: MBP-P66M fusion protein (wild-type middle portion of Borrelia burgdorferi P66, a.a. 170-404) (Borrelia burgdorferi) (UniProt H7C7N8)

Q: Which results are given for “purified recombinant human integrin αvβ3 (carrier free) (from UniProt P06756 31-1048; P05106 27-718) (receptor)”?
A: Kd [1]: 29.3 µM; kon [1]: 710 M⁻¹ s⁻¹; Kd [2]: 178 µM; kon [3]: 321000 M⁻¹ s⁻¹

Q: With “purified recombinant mouse integrin αvβ3 (carrier free) (from UniProt P43406 31-1044; O54890 26-717) (receptor)” as the substance, how does the Kd [1] read?
A: The Kd was 20.3 µM.

Q: What about the kon [1] of the same substance?
A: The kon was 1450 M⁻¹ s⁻¹.

Q: What about the Kd [2] of the same substance?
A: Its Kd is 264 µM.

Q: And the kon [3]?
A: Its kon is 112000 M⁻¹ s⁻¹.
